The record followed here is US20050106647A1 (University of Texas, published 2005).

In this assay the target is PA-BODIPY conjugate (Bacillus anthracis protective antigen conjugated to BODIPY FL) (Bacillus anthracis, UniProt P13423 30-764).
Chain of PA-BODIPY conjugate (Bacillus anthracis protective antigen conjugated to BODIPY FL) (P13423 30-764 limits assumed): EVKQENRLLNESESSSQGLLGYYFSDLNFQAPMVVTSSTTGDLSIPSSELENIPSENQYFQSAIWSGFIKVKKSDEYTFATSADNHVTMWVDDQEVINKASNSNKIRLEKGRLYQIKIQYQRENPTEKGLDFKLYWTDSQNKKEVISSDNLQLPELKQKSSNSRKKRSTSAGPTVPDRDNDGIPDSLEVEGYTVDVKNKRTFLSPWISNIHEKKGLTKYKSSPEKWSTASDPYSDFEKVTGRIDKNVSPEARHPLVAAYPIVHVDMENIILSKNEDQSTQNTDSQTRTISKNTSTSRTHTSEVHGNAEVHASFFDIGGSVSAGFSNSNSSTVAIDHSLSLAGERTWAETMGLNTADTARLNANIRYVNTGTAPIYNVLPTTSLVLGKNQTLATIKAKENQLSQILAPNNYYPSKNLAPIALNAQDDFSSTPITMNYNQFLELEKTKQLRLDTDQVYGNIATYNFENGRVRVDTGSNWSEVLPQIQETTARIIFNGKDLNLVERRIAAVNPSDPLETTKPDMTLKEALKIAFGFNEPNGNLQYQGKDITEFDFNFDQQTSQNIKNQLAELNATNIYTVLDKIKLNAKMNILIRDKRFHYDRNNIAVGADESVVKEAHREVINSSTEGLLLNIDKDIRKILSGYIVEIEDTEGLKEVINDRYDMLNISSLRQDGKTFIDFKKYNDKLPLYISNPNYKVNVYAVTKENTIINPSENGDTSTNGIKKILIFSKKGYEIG

B1: NlpA-[14B7 scFv] fusion anchored on the E. coli inner membrane (scFv)
scFv: CDQSSSDIQMTQTTSSLSASLGDRVTISCRASQDIRNYLNWYQQKPDGTVKLLIYYTSRLQSGVPSRFSGSGSGTDYSLTISNQEQEDIGTYFCQQGNTLPWTFGGGTKLEIKRGGGGSGGGGSGGGGSGGGGSEVQLQQSGPELVKPGASVKISCKDSGYAFSSSWMNWVKQRPGQGLEWIGRIYPGDGDTNYNGKFKGKATLTADKSSSTAYMQLSSLTSVDSAVYFCARSGLLRYAMDYWGQGTSVTVSS
With B1, the “fold higher mean fluorescence intensity compared to controls” value was about 9 fold.
